Consider 34 molecules from patent US20100261660A1 (published 2010).

The experiment addresses T1, Soluble CD28-Ig (extracellular domain of human CD28 fused to the Fc portion of human IgG1) (human, UniProt P10747 19-152, biotin-conjugated (NHS-biotin) in the FACS binding assays).
T1 construct: extracellular domain; bought from R&D Systems; also called sCD28-Ig; CD28-Ig Fc; not shown: Fc portion of human IgG1
Kind of experiment: competitive FACS on transfected cells, biotin-sCD28-Ig with FITC-sCTLA-4-Ig; grade 0-2 of CD28/CTLA-4 ratio vs WT hB7-1.

Substitutions are numbered along the chain they refer to.

B1: Round 2 CD28B4-3 (ligand)
chain: ITPKSVTKRVKETVMLSCDYNTSTEELTSLRIYWQKDSKMVLAILPGKVQVWPEYKNRTITDMNDNPRIVILALRLSDSGTYTCVIQKPVLKGAYKLEHLTSVRLMIRADFPVPTINDLGNPSPNIRRLICSTSGGFPRPHLYWLENGEELNATNTTLSQDPETKLYMISSELDFNMTSNHSFLCLVKYGDLTVSQTFYWQESKPTPSANQHLTWTIIIPVSAFGISVIIAVILTCLTCRNAAIRRQRRENEVEMQSCSQSP
As for B1, the “Binding Score” value is 1.

B2: Round 2 CD28D5-6 (ligand)
chain: B1 chain with N21S, T197S
For B2, the “Binding Score” value was found to be 0.

B3: Round 2 CD28B6-3 (ligand)
chain: B1 chain with V90D, E254K
For B3, the “Binding Score” value was 1.

B4: Round 2 CD28A8-6 (ligand)
chain: SGITPKSVTKRVKETVMPSCDYSTSTEELTSLRIYWQKDSKMVLAILPGKVQVWPEYKNRTITDMNDNPRIVILALRLSDSGTYTCVVQKNENGSFRREHLTSVTLSIRADFPVPSITDIGHPAPNVKRIRCSASGGFPEPRLAWMEDGEELNAVNTTVDQDLDTELYSVSSELDFNVTNNHSIVCLIKYGELSVSQIFPWSKPKQEPPIDQLPFWVIIPVSGALVLTAVVLYCLACRHVARWKRTRRNEETVGTERLSPIYLGSAQSSG
As for B4, the “Binding Score” value was 1.

B5: Round 2 CD28F3-5 (ligand)
chain: B4 chain with P18L, S23N
notes: also called GD28F3-5
For B5, the “Binding Score” value worked out at 0.

B6: Round 2 CD28G1-5 (ligand)
chain: SGITPKSVTKRVKETVMLSCDYSTSTEELTSLRIYWQKDSKMVLAILPGKVQVWPEYKNRTFPDIINNLSLMILALRLSDKGTYTCVVQKNENGSFRREHLTSVTLSIRADFPVSSITDIGHPAPNVKRIRCSASGGFPEPRLAWMEDGEELNAVNTTVDQDLDTELYSVSSELDFNVTNNHSIVCLIKYGELSVSQIFPWSKPKQEPPIDQLPFWVIIPVSGALVLTAVVLYCLACRHVARWKRTRRNEETVGTERLSPIYLGSAQSSG
For B6, the “Binding Score” value was 1.

B7: Round 2 CD28BP-11 (ligand)
chain: B4 chain with P18L, S23N, T24A, S81K
Consider B7, for which the “Binding Score” value amounted to 2.

B8: Round 2 CD28BP-17 (ligand)
chain: B6 chain with S115P, G137D, A229V
Turning to B8, the “Binding Score” value is 2.

B9: Round 1 CD28BP-126 (ligand)
chain: ITPKSVTKRVKETVMLSCDYSTSTEELTSLRIYWQKDSKMVLAILPGKVQVWPEYKNRTITDMNDNPRIVILALRLSDSGTYTCVIQKPDLKGAYKLEHLTSVRLMIRADFPVPTINDLGNPSPNIRRLICSTSGGFPRPHLYWLENGEELNATNTTVSQDPGTELYMISSELDFNVTNNHSIVCLIKYGELSVSQIFPWSKPKQEPPIDQLPFWVIIPVSGALVLTAVVLYCLACRHVARWKRTRRNEETVGTERLSPIYLGSAQSSG
notes: also called R1clone 126; Clone 126
With B9, the “Binding Score” value came out at 1.

B10: Round 2 CD28A6-9 (ligand)
chain: B9 chain with S21N, D90V, T101A, W215L
On to B10, for which the “Binding Score” value was determined as 1.

B11: Round 2 CD28E2-4 (ligand)
chain: B9 chain with S79K, D90V, T101A
For B11, the “Binding Score” value was 1.

B12: Round 2 CD28H11-3 (ligand)
chain: B9 chain with S21N, D90V, T101A, V158L, G163E, E165K, V229A
As for B12, the “Binding Score” value came to 1.

B13: Round 2 CD28E5-2 (ligand)
chain: B9 chain with S21N, T101A, V158L, G163E, E165K, H181R
Turning to B13, the “Binding Score” value stood at 0.

B14: Round 2 CD28F3-6 (ligand)
chain: B9 chain with V158L, G163E, E165K
For B14, the “Binding Score” value is 0.

B15: Round 2 CD28F8-4 (ligand)
chain: B9 chain with D90V, T101A, V158L, G163E, E165K
For the molecule B15, the “Binding Score” value was 1.

B16: Round 2 CD28A4-5* (ligand)
chain: B9 chain with S21N, D90V, V158L, G163E, E165K
B16: the “Binding Score” value was found to be 1.

B17: Round 2 CD28BP-13 (ligand)
chain: ITPKSVTKRVKETVMLSCDYSTSTEELTSLRIYWQKDSKMVLAILPGKVQVWPEYKNRTITDMNDNPRIVILALRLSDSGTYTCVIQKPVLKGAYKLEHLASVRLMIRADFPVPTINDLGNPSPNIRRLICSTSGGFPEPRLAWMEDGEELNAVNTTVDQDLDTELYSVSSELDFNVTNNHSIVCLIKYGELSVSQIFPWSKPKQEPPIDQLPFWVIIPVSGALVLTAVVLYCLACRHVARWKRTRRNEETVGTERLSPIYLGSAQSSG
Consider B17, for which the “Binding Score” value is 2.

B18: Round 2 CD28B2-8 (ligand)
chain: B9 chain with S21N, S79K, D90V, T101A
Regarding B18, the “Binding Score” value was 1.

B19: Round 2 CD28E9-6 (ligand)
chain: B9 chain with S21N, S79K, T101A
Consider B19, for which the “Binding Score” value worked out at 0.

B20: Round 2 CD28BP-4 (ligand)
chain: B9 chain with S21N, D90V, T101A, Y143C
As to B20, the “Binding Score” value amounted to 2.

B21: Round 2 CD28D2-9 (ligand)
chain: B9 chain with S21N, D90V, V158L, G163E
With B21, the “Binding Score” value was 1.

B22: Round 2 CD28F7-2 (ligand)
chain: B17 chain
Take B22: the “Binding Score” value turned out to be 2.

B23: Round 2 CD28E10-6 (ligand)
chain: B9 chain with S21N, D90V, T101A, V158L, G163E
As to B23, the “Binding Score” value was found to be 1.

B24: Round 2 CD28BP-2 (ligand)
chain: B9 chain with D90V, T101A, V158L, G163E, E165K, C233R, L234P
Turning to B24, the “Binding Score” value was 2.

B25: Round 2 CD28D8-9 (ligand)
chain: B9 chain with D90V
With B25, the “Binding Score” value was 1.

B26: Round 2 CD28BP-16 (ligand)
chain: B9 chain with S21N, D90V, T227A
B26: the “Binding Score” value is 2.

B27: Round 2 CD28C8-6 (ligand)
chain: B9 chain with S21N, D90V, T101A, D174G
With B27, the “Binding Score” value was found to be 2.

B28: Round 2 CD28BP-5 (ligand)
chain: B9 chain with S79K, I86V, D90V
As to B28, the “Binding Score” value worked out at 2.

B29: Round 2 CD28A8-4 (ligand)
chain: B9 chain with S21N, D90V
For the molecule B29, the “Binding Score” value is 1.

B30: Round 2 CD28C6-1 (ligand)
chain: B9 chain with D90V, T101A, V239G
Consider B30, for which the “Binding Score” value came to 1.

B31: Round 2 CD28A6-1 (ligand)
chain: B9 chain with S21N, D90V, T101A, G163E, E165K, W215R, V229I
B31: the “Binding Score” value was determined as 1.

B32: Round 2 CD28G2-8 (ligand)
chain: B9 chain with S21N, D90V, T101A, T115S
As to B32, the “Binding Score” value came to 1.

B33: Round 2 CD28C11-5 (ligand)
chain: B9 chain with S21N, D90V, V184A
As to B33, the “Binding Score” value turned out to be 2.

B34: Round 2 CD28BP-14 (ligand)
chain: GISQVTKSVKEMAALSCDYNISIDELARMRIYWQKDQQMVLSIISGQVEVWPEYKNRTITDMNDNPRIVILALRLSDSGTYTCVIQKPVLKGAYKLEHLASVRLMIRADFPVPTINDLGNPSPNIRRLICSTSGGFPRPHLYWLENGEELNATNTTVSQDPGTELYMISSELDFNVTNNHSIVCLIKYGELSVSQIFPWSKPKQEPPIDQLPFWVIIPVSGALVLTAVVLYCLACRHVARWKRTRRNEETVGTERLSPIYLGSAQSSG
With B34, the “Binding Score” value came out at 2.
